Square brackets hold non-standard residues; d marks the D form. Ends that are not written are not given here. * marks the point of attachment. DiMe = N,N-dimethyl (N-terminal dimethylation); Bpa = N[C@@H](Cc1ccc(C(=O)c2ccccc2)cc1)C(=O)O; Phe(4-Cl) = N[C@@H](Cc1ccc(Cl)cc1)C(=O)O; Phe(4-Me) = Cc1ccc(C[C@H](N)C(=O)O)cc1; 1Nal = N[C@@H](Cc1cccc2ccccc12)C(=O)O; 2Nal = N[C@@H](Cc1ccc2ccccc2c1)C(=O)O; Hydrocinnamoyl = O=C(CCc1ccccc1)*; Hyp = O=C(O)[C@@H]1C[C@@H](O)CN1; NMeF = CN[C@@H](Cc1ccccc1)C(=O)O; 3‑phenylpropyl = c1ccc(CCC*)cc1; Tic = O=C(O)[C@@H]1Cc2ccccc2CN1; NMeL = CN[C@@H](CC(C)C)C(=O)O; Hexanoyl = CCCCCC(=O)*
T1: human Chemokine like receptor 1 (human, UniProt Q99788 1-373)
T1 sequence (looked up): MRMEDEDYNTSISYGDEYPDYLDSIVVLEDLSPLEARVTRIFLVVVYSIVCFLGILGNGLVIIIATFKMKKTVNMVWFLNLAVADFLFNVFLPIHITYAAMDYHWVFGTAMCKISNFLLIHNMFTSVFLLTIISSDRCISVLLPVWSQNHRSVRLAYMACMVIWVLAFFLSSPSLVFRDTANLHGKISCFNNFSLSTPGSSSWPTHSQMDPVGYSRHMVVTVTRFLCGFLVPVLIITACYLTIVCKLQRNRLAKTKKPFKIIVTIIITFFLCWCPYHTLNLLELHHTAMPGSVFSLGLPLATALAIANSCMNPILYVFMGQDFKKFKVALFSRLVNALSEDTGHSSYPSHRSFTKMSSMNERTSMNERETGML


Molecular target: T1, human Chemokine like receptor 1
Experiment: cell-based or functional assay

Row | Binder | EC50 (µM), activation of Tango CMKLR1-bla U2OS cells [µM]
1 | [dY]F[NMeL]P[dS]QF[dA][Phe(4-Me)]S [YW-205] | 0.0062
2 | [dY][Phe(4-Me)][NMeL]P[dS]QF[dA][Tic]S [YW-202] | 0.0064
3 | {3‑phenylpropyl}-[dY]F[NMeL]P[dS]QF[dA][Tic]S-OH [YW-207] | 0.00092
4 | [dY]F[NMeL][Hyp][dS]QF[dA][Tic]S [YW-198] | 0.0053
5 | {2‑cyclohexylacetyl}-[dY]F[NMeL]P[dS]QF[dA][Tic]S [YW-194] | 0.0012
6 | {4‑(trifluoromethyl)benzoyl}-[dY]F[NMeL]P[dS]QF[dA][Tic]S-OH [YW-195] | 0.0008
7 | [dY][Phe(4-Cl)][NMeL]P[dS]QF[dA][Tic]S [YW-203] | 0.0082
8 | Hydrocinnamoyl-[dY]F[NMeL]P[dS]QF[dA][Tic]S-OH (SMILES CC(C)C[C@@H](C(=O)N1CCC[C@H]1C(=O)N[C@H](CO)C(=O)N[C@@H](CCC(N)=O)C(=O)N[C@@H](Cc1ccccc1)C(=O)N[C@H](C)C(=O)N1Cc2ccccc2C[C@H]1C(=O)N[C@@H](CO)C(=O)O)N(C)C(=O)[C@H](Cc1ccccc1)NC(=O)[C@@H](Cc1ccc(O)cc1)NC(=O)CCc1ccccc1) [YW-111] | 0.002

Now from value to binder:

Row | EC50 (µM), activation of Tango CMKLR1-bla U2OS cells [µM] | Binder
9 | 0.019 | [dY][2Nal][NMeL]P[dS]QF[dA][Tic]S [YW-200]
10 | 0.0014 | Hexanoyl-[dY]F[NMeL]P[dS]QF[dA][Tic]S [YW-193]
11 | 0.0027 | [dY]F[NMeL]P[dS]QF[dA]XS-NH2 (not fully specified (residue 9); printed as (D-Tyr)-Phe-(NMe-Leu)-Pro-(D-Ser)-Gln-Phe-(D-Ala)-Tic-Ser-NH2) [YW-190]
12 | 0.009 | [dY]F[NMeL]P[dS]QF[dA][Phe(4-Cl)]S [YW-206]
13 | 0.062 | [dY]F[NMeL]P[dT]QF[dA][Tic]S [YW-204]
14 | 0.076 | [dY][Bpa][NMeL]P[dS]QF[dA][Tic]S [YW-201]
15 | 0.0029 | [dY][1Nal][NMeL]P[dS]QF[dA][Tic]S [YW-199]
16 | 0.0106 | [dY][NMeF][NMeL]P[dS]QF[dA][Tic]S-OH (N-terminus assumed; SMILES CC(C)C[C@@H](C(=O)N1CCC[C@H]1C(=O)N[C@H](CO)C(=O)N[C@@H](CCC(N)=O)C(=O)N[C@@H](Cc1ccccc1)C(=O)N[C@H](C)C(=O)N1Cc2ccccc2C[C@H]1C(=O)N[C@@H](CO)C(=O)O)N(C)C(=O)[C@H](Cc1ccccc1)N(C)C(=O)[C@H](N)Cc1ccc(O)cc1) [YW-105]
17 | 0.0026 | DiMe-[dY]F[NMeL]P[dS]QF[dA][Tic]S [YW-192]

Source: patent US20210403506A1 (XDCEXPLORER SHANGHAI, published 2021)
